Assay results as given in article PMC3699631, “Posttranslational Modifications of the Histone 3 Tail and Their Impact on the Activity of Histone Lysine Demethylases In Vitro” (PLoS ONE, 2013).

Legend:
cc-KDM4C = test: MALDI-TOF-MS demethylation, truncated KDM4C; assay type: biochemical, human
Description: (§1) The enzyme kinetics were measured using a Formaldehyde DeHydrogenase Assay (FDH-Assay) and the demethylation of substrates was confirmed when possible by MALDI-TOF-MS, see File S1 for details. The test solution contained 50 mM HEPES (pH 7.5), 50 mM NaCl, 50 µM FeSO4, 500 µM α-KG, 500 µM ascorbate, 2 mM NAD, approximately 0.05 unit of FDH and e.g. 4.88 µM KDM4C (enzyme concentration varied between batches). The reference solution was comprised of the same except substrate. The assay was initiated by adding various concentrations of H3 peptide substrates e.g. H3(1–24)K9me3 (10–1000 µM) and the increase in NADH fluorescence was measured over 15–30 minutes in 30 second intervals. Data analysis and kinetic values were obtained using programs Excel and GraphPad Prism® 5.0. For details, see File S1.
(§2) The reaction mixture was diluted 1: 9 with a saturated solution of α-cyano-4-hydroxycinnamic acid (Aldrich) in a mixture of 65 % acetonitrile and 35 % MilliQ water containing 0.1 % TFA. 1 µl of the sample was spotted onto the target and air dried. The MALDI-TOF MS was carried out on an Ultraflex TOF/TOF (Bruker) operated in positive ion mode with an Ion source voltage of 25 kV, a lens voltage of 7.5 kV and a reflector voltage of 26.3 kV. The system was run in deflection mode with a mass suppression of 500 Da. […]

cc-KDM4A = test: MALDI-TOF-MS demethylation, truncated KDM4A; assay type: biochemical, human
Description: as §1, §2

human cc-KDM4A = biological target: T1, human cc-KDM4A (Homo sapiens, UniProt O75164); test: competition experiment H3(1–24)K9me3-T11(ph) with H3(1–24)K9me3, truncated KDM4A; assay type: biochemical
T1 construct: Truncated constructs of KDM4A and KDM4C containing only the catalytic cores (cc-KDM4A/cc-KDM4C); made in house
T1 sequence (O75164 1-350 limits assumed): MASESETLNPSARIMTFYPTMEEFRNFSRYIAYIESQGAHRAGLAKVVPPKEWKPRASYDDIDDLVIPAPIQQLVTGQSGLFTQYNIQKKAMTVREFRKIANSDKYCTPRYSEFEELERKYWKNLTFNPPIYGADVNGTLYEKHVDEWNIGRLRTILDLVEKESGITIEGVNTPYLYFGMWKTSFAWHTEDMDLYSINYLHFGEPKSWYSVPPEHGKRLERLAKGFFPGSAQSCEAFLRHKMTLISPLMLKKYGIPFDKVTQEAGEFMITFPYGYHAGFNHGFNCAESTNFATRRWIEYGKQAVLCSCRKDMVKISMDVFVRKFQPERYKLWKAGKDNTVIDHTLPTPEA
Description: (§3) To investigate if H3(1–24)K9me3-T11(ph) could bind to the enzyme and act as an inhibitor, a competition experiment with H3(1–24)K9me3 was carried out.
as §1

human cc-KDM4C = biological target: T2, human cc-KDM4C (Homo sapiens, UniProt Q9H3R0); test: competition experiment H3(1–24)K9me3-T11(ph) with H3(1–24)K9me3, truncated KDM4C; assay type: biochemical
T2 construct: Truncated constructs of KDM4A and KDM4C containing only the catalytic cores (cc-KDM4A/cc-KDM4C); made in house
T2 sequence (Q9H3R0 1-349 limits assumed): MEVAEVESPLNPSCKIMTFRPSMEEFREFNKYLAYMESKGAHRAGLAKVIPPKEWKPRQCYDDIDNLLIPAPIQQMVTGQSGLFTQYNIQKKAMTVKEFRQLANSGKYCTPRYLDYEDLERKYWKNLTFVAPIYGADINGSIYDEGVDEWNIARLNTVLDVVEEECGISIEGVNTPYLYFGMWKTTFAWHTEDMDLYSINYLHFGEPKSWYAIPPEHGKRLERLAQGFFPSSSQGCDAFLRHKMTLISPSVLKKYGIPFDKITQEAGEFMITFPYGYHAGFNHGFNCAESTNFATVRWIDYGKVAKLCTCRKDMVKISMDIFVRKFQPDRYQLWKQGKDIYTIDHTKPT
Description: as §3, §1

[1] = cc-KDM4A, H3(1–24)K9me3T11(ph) then H3(1–24)K9me3*
[2] = cc-KDM4C, H3(1–24)K9me3T11(ph) then H3(1–24)K9me3*

| competition / inhibition (in words) (human cc-KDM4A; competition with H3(1–24)K9me3, results not shown, enzyme not named, cc-KDM4A in Table 1) | competition / inhibition (in words) (human cc-KDM4C; competition with H3(1–24)K9me3, results not shown, enzyme not named, cc-KDM4C in Table 1) | Substance | demethylation by MALDI-TOF-MS (in words) (cc-KDM4C) | demethylation by MALDI-TOF-MS (in words) (cc-KDM4A) | K m (human cc-KDM4A; [1]) | k cat (human cc-KDM4A; [1]) | k cat /K m (human cc-KDM4A; cc-KDM4A, H3(1–24)K9me3T11(ph) then H3(1–24)K9me3*, unit: (min^−1 * µM^−1) * 10^3) | K m (human cc-KDM4C; [2]) | k cat (human cc-KDM4C; [2]) |
| --- | --- | --- | --- | --- | --- | --- | --- | --- | --- |
|  |  | H3(1–24)K4me3K9me3: bis-tri-methylated substrate, trimethylated K4 in combination with H3K9me3 | PTM product between mark K4me3 and mark K9me3 | PTM product between mark K4me3 and mark K9me3 |  |  |  |  |  |
|  |  | H3(1–24)K9me3: truncated histone tail, 24 first amino acids from the N-terminus of H3, trimethylated lysine 9; control peptide |  |  | 132±23 | 1.4±0.08 | 10.6±1.9 | 43±22 | 0.3±0.05 |
| does not act as an inhibitor | does not act as an inhibitor | H3(1–24)K9me3T11(ph): H3(1–24)K9me3 with phosphorylation of threonine 11 | no detectable turnover | no detectable turnover |  |  |  |  |  |
